Test results published in patent publication US20210244795A1.

Columns and labels:
Test in all cases: cell-based or functional assay
[1] = biological target: HIV envelope gp160 of 246F3 (pseudotyped virus) (HIV)
[2] = biological target: HIV envelope gp160 of 25710 (pseudotyped virus, Tier 2, clade C) (HIV)
[3] = biological target: HIV envelope gp160 of 398F1 (pseudotyped virus) (HIV)
[4] = biological target: HIV envelope gp160 of BJOX2000 (pseudotyped virus) (HIV)
[5] = biological target: HIV envelope gp160 of CE0217 (pseudotyped virus) (HIV)
[6] = biological target: HIV envelope gp160 of CE1176 (pseudotyped virus) (HIV)
[7] = biological target: HIV envelope gp160 of CH119 (pseudotyped virus) (HIV)
[8] = biological target: HIV envelope gp160 of CNE55 (pseudotyped virus) (HIV)
[9] = biological target: HIV envelope gp160 of CNE8 (pseudotyped virus) (HIV)
[10] = biological target: HIV envelope gp160 of TRO11 (pseudotyped virus) (HIV)
[11] = biological target: HIV envelope gp160 of X1632 (pseudotyped virus) (HIV)
[12] = biological target: HIV envelope gp160 of X2278 (pseudotyped virus) (HIV)
[13] = biological target: SIVmac239 envelope (pseudotyped virus, tier 3 isolate) (SIV)

| Substance | IC50, pseudovirus neutralization, TZM-bl assay, mouse sera [1] [µg/mL] | IC50, neutralization of 25710 pseudovirus, TZM-bl assay, mouse sera [2] [µg/mL] | IC50, pseudovirus neutralization, TZM-bl assay, mouse sera [2] [µg/mL] | IC80, neutralization of 25710 pseudovirus, TZM-bl assay, mouse sera [2] [µg/mL] | IC50, pseudovirus neutralization, TZM-bl assay, mouse sera [3] [µg/mL] | IC50, pseudovirus neutralization, TZM-bl assay, mouse sera [4] [µg/mL] | IC50, pseudovirus neutralization, TZM-bl assay, mouse sera [5] [µg/mL] | IC50, neutralization of CE1176 pseudovirus, TZM-bl assay, mouse sera [6] [µg/mL] | IC50, pseudovirus neutralization, TZM-bl assay, mouse sera [6] [µg/mL] | IC50, pseudovirus neutralization, TZM-bl assay, mouse sera [7] [µg/mL] | IC50, pseudovirus neutralization, TZM-bl assay, mouse sera [8] [µg/mL] | IC50, pseudovirus neutralization, TZM-bl assay, mouse sera [9] [µg/mL] | IC50, pseudovirus neutralization, TZM-bl assay, mouse sera [10] [µg/mL] | IC50, pseudovirus neutralization, TZM-bl assay, mouse sera [11] [µg/mL] | IC50, pseudovirus neutralization, TZM-bl assay, mouse sera [12] [µg/mL] | IC50, pseudovirus neutralization, TZM-bl assay, mouse sera [13] [µg/mL] | fold drop in IC50 against ReCD4-Ig without sulfation [2] [fold] | fold drop in IC80 against ReCD4-Ig without sulfation [2] [fold] | fold drop in IC50 against ReCD4-Ig without sulfation [6] [fold] |
| --- | --- | --- | --- | --- | --- | --- | --- | --- | --- | --- | --- | --- | --- | --- | --- | --- | --- | --- | --- |
| ReCD4-Ig (expressed from p-ReCD4-Ig alone, no co-delivered sulfotransferase) (Fc fusion) | < 5 | 1.09 | < 5 | 3.27 | < 5 | < 5 | < 5 | 0.57 | < 5 | < 5 | < 5 | < 5 | < 5 | < 5 | < 5 | < 5 | – | – | – |
| ReCD4-Ig sulfated by co-expressed IgE-TPST2 (Fc fusion) | < 5 | 0.16 | < 5 | 1.35 | < 5 | < 5 | < 5 | 0.05 | < 5 | < 5 | < 5 | < 5 | < 5 | < 5 | < 5 | – | 6.8 | 2.4 | 10 |
